In US20240247080A1, “GLP1/GIP/NPY2 RECEPTOR TRIPLE AGONISTS” (Boehringer Ingelheim International GmbH, priority 2022, published 2024):
Starred links: 1 amine or outer side, 2 acyl side, 3 side chain; linkers in the order of their positions; H or OH if unused. Non-standard residues stand in square brackets, D forms with d. Groups on a side chain read outwards from the residue. No end group written: not given here. *: point of attachment. C20 diacid = O=C(O)CCCCCCCCCCCCCCCCCCC(=O)*; γGlu = O=C(O)[C@H](CCC(=O)[*:2])N[*:1]; εLys = N[C@@H](CCCCN[*:1])C(=O)[*:2]; Aib = CC(C)(N)C(=O)O

T1: human GIP receptor (human, UniProt P48546 22-466)
T1 sequence (looked up): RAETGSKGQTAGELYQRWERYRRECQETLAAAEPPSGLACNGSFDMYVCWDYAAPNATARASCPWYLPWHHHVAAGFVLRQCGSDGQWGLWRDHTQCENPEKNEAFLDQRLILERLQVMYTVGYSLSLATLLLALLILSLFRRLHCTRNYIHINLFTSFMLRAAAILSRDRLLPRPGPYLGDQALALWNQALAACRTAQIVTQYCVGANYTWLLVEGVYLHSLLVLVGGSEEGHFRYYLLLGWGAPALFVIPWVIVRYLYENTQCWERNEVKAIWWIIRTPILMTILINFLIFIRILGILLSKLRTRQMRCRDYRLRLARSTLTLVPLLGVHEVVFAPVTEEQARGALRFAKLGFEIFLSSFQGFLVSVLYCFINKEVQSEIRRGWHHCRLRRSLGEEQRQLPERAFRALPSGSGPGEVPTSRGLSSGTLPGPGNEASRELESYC

T2: human neuropeptide Y2 (NPY2) receptor (human, UniProt P49146 1-381)
T2 sequence (looked up): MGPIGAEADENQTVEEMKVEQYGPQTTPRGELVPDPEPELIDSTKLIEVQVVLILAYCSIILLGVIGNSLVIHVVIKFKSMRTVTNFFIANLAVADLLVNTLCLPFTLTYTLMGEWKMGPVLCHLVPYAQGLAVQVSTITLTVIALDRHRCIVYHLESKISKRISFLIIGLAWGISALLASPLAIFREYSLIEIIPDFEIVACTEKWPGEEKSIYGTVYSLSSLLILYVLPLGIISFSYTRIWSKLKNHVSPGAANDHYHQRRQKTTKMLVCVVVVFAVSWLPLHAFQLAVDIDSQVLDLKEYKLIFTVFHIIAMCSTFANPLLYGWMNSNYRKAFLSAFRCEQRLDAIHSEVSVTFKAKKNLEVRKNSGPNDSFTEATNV

T3: GIP receptor (human (printed as hGIPR), UniProt P48546 22-466)
T3 sequence (looked up): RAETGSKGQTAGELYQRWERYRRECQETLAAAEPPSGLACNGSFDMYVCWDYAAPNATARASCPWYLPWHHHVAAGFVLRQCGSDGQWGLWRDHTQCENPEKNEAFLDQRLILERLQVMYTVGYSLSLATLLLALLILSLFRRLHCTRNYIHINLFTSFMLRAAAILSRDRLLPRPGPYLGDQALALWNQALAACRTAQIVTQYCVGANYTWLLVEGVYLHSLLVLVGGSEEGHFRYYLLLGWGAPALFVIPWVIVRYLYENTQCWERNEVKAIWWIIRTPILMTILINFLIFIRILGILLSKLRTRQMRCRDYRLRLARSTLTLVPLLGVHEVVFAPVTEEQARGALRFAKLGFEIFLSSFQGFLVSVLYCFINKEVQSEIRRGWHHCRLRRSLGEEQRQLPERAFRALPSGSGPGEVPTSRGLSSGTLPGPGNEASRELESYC

T4: NPY2 receptor (human (printed as hNPY2R), UniProt P49146 1-381)
T4 sequence (looked up): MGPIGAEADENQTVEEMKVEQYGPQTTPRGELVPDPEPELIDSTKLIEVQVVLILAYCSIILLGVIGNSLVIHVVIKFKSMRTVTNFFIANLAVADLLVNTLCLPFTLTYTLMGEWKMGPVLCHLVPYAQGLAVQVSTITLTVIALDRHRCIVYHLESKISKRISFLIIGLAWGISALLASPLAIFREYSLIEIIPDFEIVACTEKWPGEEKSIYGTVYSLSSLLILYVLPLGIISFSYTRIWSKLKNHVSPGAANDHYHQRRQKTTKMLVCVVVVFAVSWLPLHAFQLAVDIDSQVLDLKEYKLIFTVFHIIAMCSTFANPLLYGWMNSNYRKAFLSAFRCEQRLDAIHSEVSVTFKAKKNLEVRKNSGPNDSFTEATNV


Experiments:
Assay in all cases: cell-based or functional assay
human GIP receptor = target: T1, human GIP receptor
human GLP-1 receptor = human GLP-1 receptor (human, UniProt P43220 24-463)
[1] = target: T2, human neuropeptide Y2 (NPY2) receptor
GIP receptor = target: T3, GIP receptor
NPY2 receptor = target: T4, NPY2 receptor
GLP-1 receptor = GLP-1 receptor (human (printed as hGLP1R), UniProt P43220 24-463)

| EC50, CreLuc assay, 0.5% hP (human GIP receptor) [nM] | EC50, CreLuc assay, 100% hP (human GIP receptor) [nM] | EC50, CreLuc assay, 0.5% hP (human GLP-1 receptor) [nM] | EC50, CreLuc assay, 100% hP (human GLP-1 receptor) [nM] | EC50, CreLuc assay, 0.5% hP [1] [nM] | EC50, CreLuc assay, 100% hP [1] [nM] | EC50 hGIPR 0.5% hP (CreLuc) (GIP receptor) [nM] | EC50 hGIPR 100% hP (CreLuc) (GIP receptor) [nM] | EC50 hNPY2R 0.5% hP (CreLuc) (NPY2 receptor) [nM] | EC50 hNPY2R 100% hP (CreLuc) (NPY2 receptor) [nM] | EC50 hGLP1R 0.5% hP (CreLuc) (GLP-1 receptor) [nM] | EC50 hGLP1R 100% hP (CreLuc) (GLP-1 receptor) [nM] | Binder |
| --- | --- | --- | --- | --- | --- | --- | --- | --- | --- | --- | --- | --- |
| 0.23 | 4.08 | 0.13 | 6.74 | 8.79 | 74.5 | – | – | – | – | – | – | YXEGTFTSDYSIXLEKQAQXAFVQWLIKGGPESGASLRHYYNWLTRQRY (Aib at 2, 13, 20; K28 side chain: C20DA-gGlu-gGlu-gGlu-gGlu-gGlu; C-terminal NH2) [Compound 29] |
| – | – | – | – | – | – | 0.14 | 1.48 | 16.9 | 96.3 | 0.08 | 2.48 | YXEGTFTSDYSIXLEKQAQXAFVQWLIKGGPSEGASLRHYYNWLTRQRY (Aib at 2, 13, 20; K28 side chain carries C18DA-E-E-E-E-E (SEQ ID NO: 636); C-terminal amide) [Compound 257] |
| 0.15 | 2.63 | 0.06 | 2.94 | 13.4 | 43.5 | – | – | – | – | – | – | YXEGTFTSDYSIXLEEQAQXAFVEWLIKGGPSSGQSLRHYYNWLTRQRY (Aib at 2, 13, 20; K28 side chain: C20DA-gGlu-gGlu-gGlu-gGlu-gGlu-gGlu-eLys; C-terminal NH2) [Compound 31] |
| 0.06 | 0.96 | 0.07 | 1.3 | 11.6 | 29.3 | – | – | – | – | – | – | YXEGTFTSDYSIXLEKQAQXAFVQWLIKGGPSSGESLRHYYNWLTRQRY (Aib at 2, 13, 20; K28 side chain: C20DA-gGlu-gGlu-gGlu-gGlu-gGlu-gGlu-eK; C-terminal NH2) [Compound 35] |
| 0.13 | 1.06 | 0.08 | 1.08 | 13.3 | 56.2 | – | – | – | – | – | – | YXEGTFTSDYSIXLEEQAQXAFVQWLIKGGPSSGASLRHYYNWLTRQRY (Aib at 2, 13, 20; K28 side chain: C20DA-gGlu-gGlu-Glu-gGlu-gGlu-gGlu-eLys; C-terminal NH2) [Compound 30] |
| 0.13 | 1.61 | 0.09 | 1.39 | 14.6 | 66.7 | – | – | – | – | – | – | Y[Aib]EGTFTSDYSI[Aib]LEEQAQ[Aib]AFVQWLIK([εLys-γGlu-γGlu-γGlu-γGlu-γGlu-C20 diacid])GGPSSGASLRHYYNWLTRQRY-NH2 (also: TFA salt) [Compound 34] |

Second part, the binder before the results:

| Binder | EC50, CreLuc assay, 0.5% hP (human GIP receptor) [nM] | EC50, CreLuc assay, 100% hP (human GIP receptor) [nM] | EC50, CreLuc assay, 0.5% hP (human GLP-1 receptor) [nM] | EC50, CreLuc assay, 100% hP (human GLP-1 receptor) [nM] | EC50, CreLuc assay, 0.5% hP [1] [nM] | EC50, CreLuc assay, 100% hP [1] [nM] | EC50 hGIPR 0.5% hP (CreLuc) (GIP receptor) [nM] | EC50 hGIPR 100% hP (CreLuc) (GIP receptor) [nM] | EC50 hNPY2R 0.5% hP (CreLuc) (NPY2 receptor) [nM] | EC50 hNPY2R 100% hP (CreLuc) (NPY2 receptor) [nM] | EC50 hGLP1R 0.5% hP (CreLuc) (GLP-1 receptor) [nM] | EC50 hGLP1R 100% hP (CreLuc) (GLP-1 receptor) [nM] |
| --- | --- | --- | --- | --- | --- | --- | --- | --- | --- | --- | --- | --- |
| YXEGTFTSDYSIXLEKQAQXAFVEWLIKGGPSSGASXRHYYNWLTXQRY (Aib at 2, 13, 20, 37; hArg 46; DTyr 49; K28 side chain: C20DA-gGlu-gGlu-gGlu-gGlu-gGlu-gGlu-eLys; C-terminal NH2) [Compound 26] | 0.09 | 0.7 | 0.07 | 1.18 | > 100 | 670 | – | – | – | – | – | – |
| YXEGTFTSDYSIXLEKQAQXAFVQWLIKGGQSSYASLRHYYNWLTRQRY (Aib at 2, 13, 20; K28 side chain: C20DA-gGlu-gGlu-gGlu-gGlu-gGlu-Glu-eLys; C-terminal NH2) [Compound 22] | 0.54 | 6.62 | 0.45 | 15.9 | 8.06 | 21.3 | – | – | – | – | – | – |
| YXEGTFTSDYSIXLEKQAQXAFVEWLIKGGPSSGASLRHYYNWLTRQRY (Aib at 2, 13, 20; DHis 39; DArg 46; DTyr 49; K28 side chain: C20DA-gGlu-gGlu-gGlu-gGlu-gGlu-gGlu-eLys; C-terminal NH2) [Compound 21] | 0.14 | 0.87 | 0.11 | 1.66 | > 99.9 | > 999 | – | – | – | – | – | – |
| YXEGTFTSDYSIXLEKQAQXAFVEWLIKGGPSSGVSIRHYYNWLTRQRY (Aib at 2, 13, 20; K28 side chain: C20DA-gGlu-gGlu-gGlu-gGlu-gGlu-gGlu-eLys; C-terminal NH2) [Compound 27] | 0.17 | 1.11 | 0.1 | 1.97 | 7.16 | 21 | – | – | – | – | – | – |
| Y[Aib]EGTFTSDYSI[Aib]LEKQAQ[Aib]AFVQWLIK([εLys-Glu-γGlu-γGlu-γGlu-γGlu-C20 diacid])GGPEYYASLRHYYNWLTRQRY-NH2 (also: TFA salt) [Compound 23] | 0.56 | 11.4 | 0.47 | 37.7 | 10.1 | 72.4 | – | – | – | – | – | – |
